# Test results from patent US20230265151A1, “GIP/GLP1 CO-AGONIST COMPOUNDS” (priority 2020, published 2023).
# Substitutions are numbered along the chain they refer to.
# B1: Example 283 (peptide)
# peptide: YXEGTXTSDXSIXLDXIAQXEFIKXLIKGGPSSGAPPPS
# modifications: Aib2, αMeF(2F)6, 2Nal10, αMeL13, Orn16, Aib20, K24(Z), αMeY25, K28(Z), C-terminal NH2; Z = AEEA2-(γ-Glu)-(10-(4-carboxyphenoxy)decanoyl)
# B2: Example 156 (peptide)
# peptide: B1 peptide with I17K, K24X, K28E, P31K
# modifications: Aib2, αMeF(2F)6, 4Pal10, αMeL13, Orn16, K17(Z), 4Pal20, D-Glu24, αMeY25, K31(Z), C-terminal NH2; Z = AEEA2-(γ-Glu)-CO-(CH2)12-CO2H
# B3: Example 286 (peptide)
# peptide: B1 peptide
# modifications: Aib2, αMeF(2F)6, 4Pal10, αMeL13, Orn16, Aib20, K24(Z), αMeY25, K28(Z), C-terminal NH2; Z = AEEA2-(γ-Glu)-(11-(4-carboxyphenoxy)undecanoyl)
# B4: Example 161 (peptide)
# peptide: B1 peptide with I17K, K28E
# modifications: Aib2, aMeF(2F)6, 4Pal10, aMeL13, Orn16, K17(Z), Aib20, K24(Z), αMeY25, C-terminal NH2; Z = eK-gE-C14_OH (so in the source)
# B5: Example 275 (peptide)
# peptide: B1 peptide with E21K, K24X
# modifications: Aib2, αMeF(2F)6, 4Pal10, αMeL13, Orn16, Aib20, K21(Z), D-Glu24, αMeY25, K28(Z), C-terminal NH2; Z = AEEA2-(γ-Glu)-(10-(4-carboxyphenoxy)decanoyl)
# B6: Example 284 (peptide)
# peptide: B1 peptide with E21K, K24X
# modifications: Aib2, αMeF(2F)6, 2Nal10, αMeL13, Orn16, Aib20, K21(Z), D-Glu24, αMeY25, K28(Z), C-terminal NH2; Z = AEEA2-(γ-Glu)-(10-(4-carboxyphenoxy)decanoyl)
# B7: Example 289 (peptide)
# peptide: B1 peptide with I17K, E21K, K24X, K28E
# modifications: Aib2, αMeF(2F)6, OMeY10, αMeL13, Orn16, K17(Z), Aib20, K21(Z), D-Glu24, αMeY25, C-terminal NH2; Z = AEEA2-(γ-Glu)-CO-(CH2)10-CH3
# B8: Example 282 (peptide)
# peptide: B1 peptide with I17K, K24X
# modifications: Aib2, αMeF(2F)6, 2Nal10, αMeL13, Orn16, K17(Z), Aib20, D-Glu24, αMeY25, K28(Z), C-terminal NH2; Z = AEEA2-(γ-Glu)-(10-(4-carboxyphenoxy)decanoyl)
# B9: Example 272 (peptide)
# peptide: B1 peptide with I17K, E21K, K24X, K28E
# modifications: Aib2, αMeF(2F)6, hTyr10, αMeL13, Orn16, K17(Z), Aib20, K21(Z), D-Glu24, αMeY25, C-terminal NH2; Z = AEEA2-CO-(CH2)12-CO2H
# B10: Example 280 (peptide)
# peptide: B1 peptide with E21K, K24X
# modifications: Aib2, αMeF(2F)6, OMeY10, αMeL13, Orn16, Aib20, K21(Z), D-Glu24, αMeY25, K28(Z), C-terminal NH2; Z = AEEA2-(γ-Glu)-(10-(4-carboxyphenoxy)decanoyl)
# B11: Example 271 (peptide)
# peptide: B1 peptide with I17K, E21K, K24X, K28E
# modifications: Aib2, αMeF(2F)6, Nle10, αMeL13, Orn16, K17(Z), Aib20, K21(Z), D-Glu24, αMeY25, C-terminal NH2; Z = AEEA2-CO-(CH2)12-CO2H
# B12: Example 160 (peptide)
# peptide: B1 peptide with I17K, K28E
# modifications: Aib2, αMeF(2F)6, 4Pal10, αMeL13, Orn16, K17(Z), Aib20, K24(Z), αMeY25, C-terminal NH2; Z = AEEA2-(εK)-CO-(CH2)12-CO2H
# B13: Example 158 (peptide)
# peptide: B1 peptide with I17K, K24E, K28E, P31K
# modifications: Aib2, αMeF(2F)6, 4Pal10, αMeL13, Orn16, K17(Z), Aib20, αMeY25, K31(Z), C-terminal NH2; Z = AEEA2-(γ-Glu)-CO-(CH2)12-CO2H
# B14: Example 279 (peptide)
# peptide: B1 peptide
# modifications: Aib2, αMeF(2F)6, OMeY10, αMeL13, Orn16, Aib20, K24(Z), αMeY25, K28(Z), C-terminal NH2; Z = AEEA2-(γ-Glu)-(10-(4-carboxyphenoxy)decanoyl)
# B15: Example 290 (peptide)
# peptide: B1 peptide with I17K, K24X
# modifications: Aib2, αMeF(2F)6, OMeY10, αMeL13, Orn16, K17(Z), Aib20, D-Glu24, αMeY25, K28(Z), C-terminal NH2; Z = AEEA2-(γ-Glu)-CO-(CH2)10-CH3
# B16: Example 162 (peptide)
# peptide: B1 peptide with I17K, K28E
# modifications: Aib2, αMeF(2F)6, 4Pal10, αMeL13, Orn16, K17(Z), Aib20, K24(Z), αMeY25, C-terminal NH2; Z = (εK)-(εK)-(γ-Glu)-CO-(CH2)12-CO2H
# B17: Example 287 (peptide)
# peptide: B1 peptide with E21K, K24X
# modifications: Aib2, αMeF(2F)6, 4Pal10, αMeL13, Orn16, Aib20, K21(Z), D-Glu24, αMeY25, K28(Z), C-terminal NH2; Z = AEEA2-(γ-Glu)-(11-(4-carboxyphenoxy)undecanoyl)
# Target: human glucagon receptor (human, UniProt P47871 26-477)
# Assay: cell-based or functional assay
row,Binder,cAMP EC50 [µM]
1,B1,> 9.95
2,B2,> 9.95
3,B3,> 9.95
4,B4,> 9.95
5,B5,> 9.95
6,B6,> 9.95
7,B7,> 9.95
8,B8,> 9.95
9,B9,> 9.95
10,B10,> 9.95
11,B11,> 9.95
12,B12,> 9.95
13,B13,> 9.95
14,B14,> 9.95
15,B15,> 9.95
16,B16,> 9.95
17,B17,> 9.95

# Target: T1, human glucose-dependent insulinotropic polypeptide (GIP) receptor (human, UniProt P48546 22-466)
# T1 sequence (looked up): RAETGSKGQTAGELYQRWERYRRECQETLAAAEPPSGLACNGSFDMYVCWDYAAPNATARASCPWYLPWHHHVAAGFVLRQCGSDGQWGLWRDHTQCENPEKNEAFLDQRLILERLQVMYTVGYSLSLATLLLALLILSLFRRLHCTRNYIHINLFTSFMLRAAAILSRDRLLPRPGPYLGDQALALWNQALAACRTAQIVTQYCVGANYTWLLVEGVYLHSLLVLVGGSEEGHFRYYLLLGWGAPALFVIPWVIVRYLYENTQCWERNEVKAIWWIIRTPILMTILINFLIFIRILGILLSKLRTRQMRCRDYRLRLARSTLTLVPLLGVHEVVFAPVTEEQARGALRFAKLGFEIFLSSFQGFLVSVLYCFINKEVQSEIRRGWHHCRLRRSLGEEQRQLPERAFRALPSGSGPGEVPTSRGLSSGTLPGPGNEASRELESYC
# Assay: cell-based or functional assay
Binder,cAMP EC50 [nM],cAMP Emax [%]
B1,0.073,–
B2,0.0422,–
B3,0.0344,–
B4,0.0207,–
B5,0.0152,–
B6,0.0389,–
B7,0.017,–
B8,0.0193,–
B9,0.0264,–
B10,0.0229,–
B11,0.0186,–
B12,0.0197,–
B13,0.0204,93.4
B14,0.0305,–
B15,0.0188,–
B16,0.022,89.7
B17,0.0189,–

# Target: human glucagon-like peptide-1 (GLP-1) receptor (human, UniProt P43220 24-463)
# Assay: cell-based or functional assay
Binder,cAMP EC50 [nM],cAMP Emax [%]
B1,1.14,–
B2,4.6,–
B3,0.678,–
B4,0.203,–
B5,0.737,–
B6,0.505,–
B7,0.731,–
B8,0.216,–
B9,0.388,–
B10,0.346,–
B11,0.494,–
B12,0.228,–
B13,0.448,87.2
B14,0.406,–
B15,0.324,–
B16,0.327,–
B17,0.563,–
